Assay: yeast display, Sf9 membrane polyspecificity reagent, FACS + sequencing; frameworks hold sequencing errors
Procedure, shortened: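 Nanobodies came from a synthetic yeast display library in Saccharomyces cerevisiae BJ5465, induced with galactose for 36–48 hours and stained for 1 hour at 4 °C with 10% biotinylated, detergent-solubilized Sf9 membrane reagent. Cells were enriched on streptavidin microbeads and then FACS-sorted, with low and high (top ~1%) gates set on anti-HA fluorescence for expression and streptavidin fluorescence for reagent binding. Each polyreactivity label reflects the gate a clone came from. Genes were amplified by colony PCR, sequenced by MiSeq 2 × 250 and filtered by CDR length.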

Row | Sequence | polyreactivity (PSR sort gate)
1 | QVQLVESGGGLVQAGGSLRLSCAASGRTFRNYAMGWYRPAPGKERELDAGITDSGGSTFYADSVKGRFTISRDNAKNTVYLQMNSLKPADTAVYYCAAVYVPYYWLGRSRGLDYWGQGTQVTVSS | high polyreactivity
2 | QVQLVESGGCLVQAGGSLRLSCAASGRNIAYNAMGWSRQAPGKERELVASISSGGSTFYADSVKGRFTISRDNAKNTVYLQMNSLKPEDTAVYYCAKGGYWGQGTQVSVSS | high polyreactivity
3 | QVQLVESGGGLVQAGGSLRLSCAPSGRTFGYNVMGWYRQAPGKERELVAAISYSGGSTYYADSVKGRFTISRDNAKNTVYLQMNSLKPEDTAVYYCAATVLSWYGDYPVYYWGQGTQVTVSS | low polyreactivity
4 | QVQLVESGGGLVQAGGSLRLICAASGYIFRDYAMGWYRQAPGKERELVATISSGGSTSYADSVKGRFTISRDNAKNTVYLQMNSLKPEDTAVYYCAADVANTSAEYYYWGQGTQVTVSS | low polyreactivity
5 | QVQLVESGGGLVQAGGSLRLSCAASGSIFDHNAMGWYRQAPGKEREFVARITSSGGGTYYADSVKGRFTISRDNAKNTVYLQMNSLKPEDTAVYYCAKTYYRQGARYPTLFYYWGQGTQVTVSS | low polyreactivity
6 | QVQLVESGGGLVQAGGSLRLICAASGRTFYPNAMGWYRPAPGKERELVAAINSGDSTSYADSVKGRFTIARDNAKNTVYLQMNRLKPEDTAVYYCAAAEWYQFFIYRYTYEYWGQGTQVTVSS | low polyreactivity
7 | QLQLVESGGGLVQAGGSLRLSCAASGRIFRKNAMGWYRQAPGKERELVAAITSSGNTYYADSVKGRFTISRDNAKNTVYLQMNSLKTEDTAVYYCAARLKWLNRYGYDYWGQGTQVTVSS | low polyreactivity
8 | QVQLVESGGGLLQAGGSLRLSCAASGFTIVCYAMGWYRQAPGKERELVAAISSGGSTYYADSVKGRFTISRDNAKNTVFLLMNSLKPEDTAVYYCAADREYYDEYAGYEYWGQGTQVTVSS | low polyreactivity
9 | QVQLVESGGGLVQAGGSLRLSCAASGFTFGRYAMGWYRQAPGKERELVAAINYTDGSTYYADSVKGRFTISRDNAKNTVYLQMNSLKPEDTAGYYCAATTLSFEGGKYWSKYDYWGQGTQVTVSS | low polyreactivity
10 | QVQLVESGGGLVQAGGSLRLSCAASGRTFGRNAMGWYRQAPRKERELVAAISDRGVSTYYADSVKGRFTISRDNAKNTVYLQMNSLKPEDTAVYYCAAVFWVDILPGDYWGQGTQVTVSS | low polyreactivity
11 | QVQLVESGGGLVQAGGSLRLSCAASGRTFWYYAMGWYRQAPGKEREFVAAISYSGDGTYYADSVKGRFTISRDNAKNTVYLQMNSLKPEDTAVYYCAAEWYDPTLPTAWSEYEYWGQGTQVTVSS | high polyreactivity
12 | QVQLVESGGGLVQAGGSLRLSCAASGIIFGVYAMGWYRQAPGKERELVASIRYSSVRTYYADSVKGRFTISRDNAKNTVYLQMNSLKPEDTAVYYCAKYYVWPRYGYWGQGTQVTVSS | high polyreactivity
13 | QVQLVESGGGLVQAGGSLRLSCAASGYTFTIYAMGWYRQAPGKERELVAAITGRGGRTNYADSVKGRFTISRDNAKNTVYLQMNSLKPEDTAVYYCAKGGRSSSPRYRFDYWGQGTQVTVSS | high polyreactivity
14 | QVQLVESGGGLVQAGGSLRLSCAASGLTFSRYAKGRYRQAPGKERELVAAISSSGTRTYYADSVKGRFTISRDNAKITVYLQMNSLKPEDTAVYYCAARSGGSGGTYGYWGHGTQVTVSS | high polyreactivity
15 | QVQLVESGGGLVQAGGSLRLICAASGSIFSVNTMGWYREAPGKERELVATIRTGDSTNYADSVKGRFTISRDNAKNTVYLQMNSLKPEDTAVYYCAAEWSSLNFDYWGQGTQVTVSS | low polyreactivity
16 | QVQLVESGGGLVQAGGSLRLSCAASGSTFGYYAMGWDRQAPGKERELVAAISRRVGSTYYADSVKGRFTISRDNAKNTVSLQMNSLNPEDTAVYYWASTSVNPWRGDYDMYYWGQGTQVTVSS | high polyreactivity

Row | Sequence | polyreactivity (PSR sort gate)
17 | QVQLVESGGGLVQAGGSLRLSCASSGSIGYYAMGWYRQAPGKERELVAAIDWSGGDTYYADSVKGRFTISRDNAKNTVYLQMNSLKPEDTAVYYCAADAGRYLPDCTYDYWGQGTQVTVSS | low polyreactivity
18 | QVQHVESGGGLVQAGGSLRLSCAASGRTLIYNAMGWYRQAPGKERELVAAITGGGGRTYYADSVKGRFTISRDNAKNTVYLQMNSLKPEDTAVYYCAVAGTVLSHMGYWGQGTQVTVSS | low polyreactivity
19 | QVQLVESGGGLVQAGGSLRLSCAASGSTFDGNAMGWYRQAPGKERELVATINSDDSKNYADSVKGRFTISRDNAKNTVYLQMNSLKPEDTAVYYCAARLYVTPILSYVERYTNDYWGQGTQVTVSS | low polyreactivity
20 | QVQLVESCGGLVQAGGSHRLSCAASGFTFTRNALGWYRQAPGKERELVAAISIRGSSTYYADSVKGRFTISRDNAKNTVYLQMNILKQEDTAVYYCSAPTFSLHGTYGYWGQGTQVTVSS | high polyreactivity
21 | QVQLVESGGGLVQAGGSLRLSSPDSGLIFYLYAMGWYRQSHGKEREFVAAITSGGGSTYYADSVKGRFTISRDNAKNTVYLQINILIPEDTAVFYCAARLVLYITVVYEVDYWGQGTQVTVSS | low polyreactivity
22 | QVQLVESGGGLVQAGGSLRLSCAASGSIFGYYAMGWYRQAPGKERELVATISNDGSTKYADSVKGRFTISRDNAKNTVYLQMNSLKPEDSAVYYCAADSARHGRDTYQPEYRNDYWGQGTQVTVSS | low polyreactivity
23 | QVQLVESGAGLFKAGGSLRLSCAASGRIFATNAMGWYRQAPGKERELVAAISSSGGSTYYADSVKGRFTISRDNAKNTVYLQMNSLKPEDTAVYDCAAAHSYYVHYYYWGQGTQGTVSS | high polyreactivity
24 | QVQLVESGGGLVQAGGSLRLSCAASGSTFGHYAMGWSRQAPGKERELVAAISWSGASTYYADSVKGRFTISRDNAKNTVYLQMNSLKPEDTAVYYCATVGPWPGEYDYWGQGTQVTVSS | low polyreactivity
25 | QVQLVESGGGLVQAGGSLRLSCAASGRTLQTYVMGWYRQAPGKERELVAAITRGGGSTYYADSVKGRFTISRDNAKNTVYLQMNSLKPEDTAVYYCAASALRFNSRFSHWYNYWGQGTQVTVSS | high polyreactivity
26 | QVQLVESGGGLVQAGGSLRLICADSGRIFNRYAMGWYRQAPGKEREFVAGITWNGGSTYYADSVKGRFTISRDNSKNTVNLQMNSLKPEDTAVYYCAATHYYYGTSRYDYWGQGTQVTVSS | high polyreactivity
27 | QVQLVESGGGLVQAGGSLRLSCAASGSIFPPYALGWYRQAPGKERELVAAIDWGGSSTYYADSVKGRFTISRDNAKYTVYLQMNSLKPEATAVYYCAAEVVHGYYLYEYWGQGTQVTVSS | high polyreactivity
28 | QVQLVESGGGLVQAGGSLRLSCAASGFTITTYAMGWYRQAPGKERELVAVISVSGGRTYYADSVKGRFTISRDNAKNTVYLQMNSLKPEDTAVYYCAAEYYPGWEYGYWGQGTQVTVSS | high polyreactivity
29 | QVQLVESGGGLVQAGGSLRLRCAASGSTFSRYAMGWYRQAAGKERELVAAISWSGGSTYYADSVKGRFTISRDNAKNTVYLQMNSLKPEYTAVYYCAAYTYSFRANHDFWGQGTQVTVSS | high polyreactivity
30 | QVQLVESGGGLVQAGGSLRLSCAASGPTFTYNAMGWYRQAPGKERELVATINSVDSTYADSVKGRFTISRDNAKNTVYLQMNSMKPEDTAVYYCNAGFPLSLWLGDYWGQGTQVTVSS | low polyreactivity
31 | QVQLVESGGGLVQAGGSLRLSCAASGFIFYDYDMGCYRQAPGKERELVAAITYSGGSTYYADSVKGRFTISRDNAKNTVYLQMNSLKPEDTAVYYCAAVKSRYAEAVDYYYWGQGTQVTVSS | low polyreactivity

Source: the nanobody polyreactivity screen of Harvey et al. (2022)
